The target of this assay is sfGFP^204SCO (Aequorea victoria) [GFP: P42212]. Kind of assay: FRET or BRET; steady state emission of the covalently SPAAC-linked GFVen^204 dimer, excitation at 450 nm; relative efficiency from donor and acceptor intensities (Equation 3) after deconvolution. Background: In BRET a luciferase serves as donor, and the signal depends on an acceptor being close.

“Venus^204azF (from UniProt P42212 2-238) (natural protein)” had an FRET efficiency allowing for variation in quantum yield of 85 to 91% and a relative FRET efficiency of 87%.

(Values after publication PMC7788595.)
